Here are results for one molecule from paper PMC5458386, “Crystal structures of human Fabs targeting the Bexsero meningococcal vaccine antigen NHBA” (Acta Crystallographica. Section F, Structural Biology …, 2017).

As a reminder, the Kd is the concentration at which binding is half-saturated. The term koff denotes the first-order rate constant of dissociation. Higher therefore signals fast dissociation. By kon is commonly meant the second-order rate constant of association.

The target in the assay is T1, Neisserial heparin-binding antigen (NHBA) peptide 20 (Neisseria meningitidis strain 2996, UniProt Q9JPP1 18-427).
T1 construct: NHBA variant p20 (short variant) of N. meningitidis strain 2996, UniProt Q9JPP1; also called NHBA p20; NHBAp20
T1 sequence: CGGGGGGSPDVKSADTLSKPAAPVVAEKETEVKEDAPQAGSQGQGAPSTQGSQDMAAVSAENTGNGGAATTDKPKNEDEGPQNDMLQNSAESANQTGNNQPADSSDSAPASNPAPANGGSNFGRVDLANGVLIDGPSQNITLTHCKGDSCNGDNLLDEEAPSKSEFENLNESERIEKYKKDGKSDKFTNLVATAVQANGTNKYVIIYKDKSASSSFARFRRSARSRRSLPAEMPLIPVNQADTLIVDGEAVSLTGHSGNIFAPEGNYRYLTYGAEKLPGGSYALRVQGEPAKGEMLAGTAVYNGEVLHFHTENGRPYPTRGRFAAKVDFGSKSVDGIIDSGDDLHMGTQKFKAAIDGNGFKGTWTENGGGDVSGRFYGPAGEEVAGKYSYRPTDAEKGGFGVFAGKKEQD
Put plainly: SPR; Biacore T200, 25 °C; Fab (800-1100 RU) captured by anti-Fab mAbs (Human Fab Capture Kit) on a CM5 chip; NHBA injected, single-cycle kinetics, five injections 6.25-100 nM, 30 µl/min; HBS-EP (10 mM HEPES, 150 mM NaCl, 3 mM EDTA, 0.05% P20, pH 7.4); 1:1 Langmuir model with mass-transfer term; duplicate. The following applies: both partners purified.

B1: Fab 12E1 (Fab, V domains shown)
VH: QVQLVQSGAEVKKPGASVKVSCKASGYIFTSHPIHWVRQAPGQRPEWMGWINAGNGNTKYSQKFQDRVNLTRDTSASTVFMELINLRFEDTAIYYCIRETKFDPWGQGTLVTVSS
VL: EIVLTQSPLSLPVTLGQPASISCRSSQDLVYRDGITYLNWFQQRPGQSPRRLIYKVSNRDSGVPDRFSGSGSGTDFTLRISRVEAEDIGVYYCMQGTHWPITFGQGTRLEIKR
notes: heavy chain of Fab 12E1 (human VH, human IgG1 CH1) as left after TEV cleavage; light chain of Fab 12E1; Fab cloned from a human monoclonal antibody of a Bexsero vaccinee; also called anti-NHBA human Fab 12E1; source: Expi293 cells, transient transfection, purified from supernatant (StrepTrap HP, TEV cleavage, Superdex 200); not shown: double Strep-tag II, C-terminal, cleaved
B1 gave an equilibrium dissociation constant (Kd) of 6.2 nM, an off-rate constant (koff) of 0.0003 s⁻¹ and an on-rate constant (kon) of 49000 M⁻¹ s⁻¹.
